Measurements taken from PMC2582609.

How the values were obtained:
[1] = target: NIPBL R1856G (CdLS missense mutation) GAL4-DNA-binding domain fusion (human) (UniProt Q6KC79); experiment: two-hybrid
[2] = target: NIPBL R1895T (CdLS missense mutation) GAL4-DNA-binding domain fusion (human) (UniProt Q6KC79); experiment: two-hybrid

Substance: full-length HDAC3 fused to the GAL4-activating domain (from UniProt O15379 1-428) (enzyme)
- β-galactosidase activity compared to the wild-type construct [1]: 50%
- β-galactosidase activity compared to the wild-type construct [2]: 50%
